This passage reports pseudovirus neutralization potency, fold reduction against 2-15 IgG and fold reduction of binding affinity against 2-15 IgG results from paper PMC7972811.

The target of experiment [1] is SARS-CoV-2 spike S2P (ectodomain of the SARS-CoV-2 S trimer) (SARS-CoV-2, ancestral (P0DTC2 sequence)).
For experiment [2] the target is unchanged. Briefly: SPR. For orientation: SPR reads the build-up and loss of mass on a sensor chip optically.

“2-15 IgG with the paratope somatic hypermutation Y32F (light chain) reverted to germline (antibody)” returned a pseudovirus neutralization potency, fold reduction against 2-15 IgG in experiment [1] of 42 fold. Also, in experiment [2], the fold reduction of binding affinity against 2-15 IgG turned out to be 12 fold.
